From the supplement of paper PMC5998384

Key:
HeLa Kyoto [1] = experiment: solubility in G1/S (NP-40 vs SDS abundance) (log2 ratio); higher = more soluble; conditions: cell cycle stage: G1/S
HeLa Kyoto [2] = experiment: melting temperature (median over replicates), in situ; higher = more thermally stable
HeLa Kyoto [3] = experiment: solubility change mitosis vs G1/S (difference of NP-40 vs SDS log2 ratios) (log2 ratio difference); higher = more soluble in mitosis
HeLa Kyoto [4] = experiment: thermal stability score vs G1/S (z-score of summed log2 fold changes over temperatures); higher = more thermally stable than in G1/S
[5] = cell cycle stage: early G1 (4.5 h after nocodazole release)
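Wherever melting temperature (median over replicates), in situ is given: HeLa Kyoto cells synchronized by double thymidine or nocodazole block, proteins quantified by TMT10plex mass spectrometry, three independent biological replicates.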
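Wherever solubility change mitosis vs G1/S (difference of NP-40 vs SDS log2 ratios) is given: synchronized HeLa Kyoto cells (double thymidine block for G1/S, nocodazole release for mitosis), protein amounts in NP-40 versus SDS lysates quantified by mass spectrometry, three biological replicates.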
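Wherever solubility in G1/S (NP-40 vs SDS abundance) is given: HeLa Kyoto cells arrested at G1/S by double thymidine block, proteins quantified by TMT10plex mass spectrometry in mild NP-40 versus SDS extracts, three biological replicates.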
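Wherever thermal stability score vs G1/S (z-score of summed log2 fold changes over temperatures) is given: synchronized HeLa Kyoto cells, proteins quantified by TMT10plex mass spectrometry, three biological replicates, mitosis taken 0.5 h after nocodazole release, G1/S directly after double thymidine block.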

| Substance | solubility in G1/S (log2) (HeLa Kyoto [1]) | melting temperature (HeLa Kyoto [2]; cell cycle stage: G1/S) | melting temperature (HeLa Kyoto [2]; cell cycle stage: mitosis) | solubility change mitosis (log2) (HeLa Kyoto [3]) | thermal stability score (HeLa Kyoto [4]; [5]) | thermal stability score (HeLa Kyoto [4]; cell cycle stage: mitosis) |
| --- | --- | --- | --- | --- | --- | --- |
| MSKGTSSDTSLGRVSRAAFPSPTAAEMAEISRIQYEMEYTEGISQRMRVPEKLKVAPPNADLEQGFQEGVPNASVIMQVPERIVVAGNNEDVSFSRPADLDLIQSTPFKPLALKTPPRVLTLSERPLDFLDLERPPTTPQNEEIRAVGRLKRERSMSENAVRQNGQLVRNDSLWHRSDSAPRNKISRFQAPISAPEYTVTPSPQQARVCPPHMLPEDGANLSSARGILSLIQSSTRRAYQQILDVLDENRRPVLRGGSAAATSNPHHDNVRYGISNIDTTIEGTSDDLTVVDAASLRRQIIKLNRRLQLLEEENKERAKREMVMYSITVAFWLLNSWLWFRR [MFF] | 0.532 | 51.6 °C | 52.6 °C | -0.00278 | 0.544 | 1.39 |
| MSSLIRRVISTAKAPGAIGPYSQAVLVDRTIYISGQIGMDPSSGQLVSGGVAEEAKQALKNMGEILKAAGCDFTNVVKTTVLLADINDFNTVNEIYKQYFKSNFPARAAYQVAALPKGSRIEIEAVAIQGPLTTASL [HRSP12] | 0.213 | 55.4 °C | 55 °C | 0.158 | -1.03 | -1.85 |
| NIFK | -1.88 | 51.7 °C | 52.8 °C | 0.784 | 4.37 | 4.42 |
| MTDSKYFTTTKKGEIFELKAELNSDKKEKKKEAVKKVIASMTVGKDVSALFPDVVNCMQTDNLELKKLVYLYLMNYAKSQPDMAIMAVNTFVKDCEDPNPLIRALAVRTMGCIRVDKITEYLCEPLRKCLKDEDPYVRKTAAVCVAKLHDINAQLVEDQGFLDTLKDLISDSNPMVVANAVAALSEIAESHPSSNLLDLNPQSINKLLTALNECTEWGQIFILDCLANYMPKDDREAQSICERVTPRLSHANSAVVLSAVKVLMKFMEMLSKDLDYYGTLLKKLAPPLVTLLSAEPELQYVALRNINLIVQKRPEILKHEMKVFFVKYNDPIYVKLEKLDIMIRLASQANIAQVLAELKEYATEVDVDFVRKAVRAIGRCAIKVEQSAERCVSTLLDLIQTKVNYVVQEAIVVIKDIFRKYPNKYESVIATLCENLDSLDEPEARAAMIWIVGEYAERIDNADELLESFLEGFHDESTQVQLQLLTAIVKLFLKKPTETQELVQQVLSLATQDSDNPDLRDRGYIYWRLLSTDPVAAKEVVLAEKPLISEETDLIEPTLLDELICYIGTLASVYHKPPSAFVEGGRGVVHKSLPPRTASSESAESPETAPTGAPPGEQPDVIPAQGDLLGDLLNLDLGPPVSGPPLATSSVQMGAVDLLGGGLDSLMGDEPEGIGGTNFVAPPTAAVPANLGAPIGSGLSDLFDLTSGVGTLSGSYVAPKAVWLPAMKAKGLEISGTFTRQVGSISMDLQLTNKALQVMTDFAIQFNRNSFGLAPAAPLQVHAPLSPNQTVEISLPLSTVGSVMKMEPLNNLQVAVKNNIDVFYFSTLYPLHILFVEDGKMDRQMFLATWKDIPNENEAQFQIRDCPLNAEAASSKLQSSNIFTVAKRNVEGQDMLYQSLKLTNGIWVLAELRIQPGNPSCTDLELSLKCRAPEVSQHVYQAYETILKN [AP1B1] | 0.297 | 51.7 °C | 51.1 °C | -0.225 | -0.616 | 0.595 |
| NFIC | 0.109 | 56.8 °C | 57.3 °C | 0.0157 | -1.32 | 2.11 |
| MSDDDSRASTSSSSSSSSNQQTEKETNTPKKKESKVSMSKNSKLLSTSAKRIQKELADITLDPPPNCSAGPKGDNIYEWRSTILGPPGSVYEGGVFFLDITFTPEYPFKPPKVTFRTRIYHCNINSQGVICLDILKDNWSPALTISKVLLSICSLLTDCNPADPLVGSIATQYMTNRAEHDRMARQWTKRYAT [UBE2E1] | 0.338 | 48.5 °C | 49.5 °C | -0.151 | 1.73 | 3.2 |
| MATEHVNGNGTEEPMDTTSAVIHSENFQTLLDAGLPQKVAEKLDEIYVAGLVAHSDLDERAIEALKEFNEDGALAVLQQFKDSDLSHVQNKSAFLCGVMKTYRQREKQGTKVADSSKGPDEAKIKALLERTGYTLDVTTGQRKYGGPPPDSVYSGQQPSVGTEIFVGKIPRDLFEDELVPLFEKAGPIWDLRLMMDPLTGLNRGYAFVTFCTKEAAQEAVKLYNNHEIRSGKHIGVCISVANNRLFVGSIPKSKTKEQILEEFSKVTEGLTDVILYHQPDDKKKNRGFCFLEYEDHKTAAQARRRLMSGKVKVWGNVGTVEWADPIEDPDPEVMAKVKVLFVRNLANTVTEEILEKAFSQFGKLERVKKLKDYAFIHFDERDGAVKAMEEMNGKDLEGENIEIVFAKPPDQKRKERKAQRQAAKNQMYDDYYYYGPPHMPPPTRGRGRGGRGGYGYPPDYYGYEDYYDYYGYDYHNYRGGYEDPYYGYEDFQVGARGRGGRGARGAAPSRGRGAAPPRGRAGYSQRGGPGSARGVRGARGGAQQQRGRGVRGARGGRGGNVGGKRKADGYNQPDSKRRQTNNQNWGSQPIAQQPLQGGDHSGNYGYKSENQEFYQDTFGQQWK [SYNCRIP] | 0.0281 | 51.3 °C | 50.8 °C | 0.0879 | -1.08 | -0.356 |
